Assay [1] has as its target T1, His-tagged ectodomain of human transferrin receptor 1 (hTfR1), amino acids R121-F760 (human, UniProt P02786 121-760).
T1 construct: Made in CHO cells, purified by IMAC; also called human TfR1; ectodomain of hTfR1
Description: SPR (Biacore 8K, single-cycle); hTfR1 amine-coupled on CM5, fusion as analyte 0.25-64 nM. On the technique in general: In SPR one partner is held on a chip, and binding of the other changes the refractive index at the surface.

Assay [2] concerns the target T1, His-tagged ectodomain of human …. The assay is described as follows: SPR (Biacore T200); hTfR1 amine-coupled (~2300 RU), single concentration. How it is done: (§1) Briefly, hTfR1 was covalently immobilized to the surface of a CM5 chip (Cytiva) by amine coupling using standard reagents. […] Subsequently, all six VHHs were diluted in running buffer (PBS supplemented with 0.05% Tween® 20 (PBS-T)) to 100 nM. A signal equal or higher than the corresponding WT was regarded as “binding similar to WT” (see Table 11).

The target is the same in assay [3]. Description: SPR (Biacore T200); hTfR1 amine-coupled (~1000 RU), single concentration; - = no apparent binding. How it is done:
(§2) Briefly, hTfR1 was covalently immobilized to the surface of a CM5 chip (Cytiva) by amine coupling using standard reagents. Human TfR1 was diluted to 15 μg/mL in 10 mM sodium acetate pH 5.5 and immobilizing level was aimed to 1000 response units (RUs). Subsequently, all VHHs were diluted in running buffer (PBS supplemented with 0.05% Tween® 20) to 50 nM. […] Similarly, KB_A15 was also only tested fused to a His6 tag.
(§3) KB_A20-KB_A31 were only produced in CHO cells and purified by PrismA™ resin.

For assay [4] the target is unchanged. The assay is described as follows: SPR (Biacore T200); hTfR1 amine-coupled (~2300 RU), VHH at 100 nM; column: binding to hTfR1 similar to corresponding WT VHH. How it is done:
as §1

The target is the same in assay [5]. The assay is described as follows: SPR (Biacore T200); hTfR1 amine-coupled (~1000 RU), VHH at 50 nM; X = binding similar to control. How it is done:
as §2, §3

The target is the same in assay [6]. The assay is described as follows: SPR (Biacore T200); hTfR1 amine-coupled (~1000 RU), VHH at 50 nM; (X) = binding affinity decreased. How it is done: as §2, §3
The target of assay [7] is T2, His-tagged ectodomain of mouse transferrin receptor 1 (mTfR1), amino acids S122-F763 (mouse, UniProt Q62351 122-763).
T2 construct: Made in CHO cells; also called mouse TfR1
T2 sequence (Q62351 other isoform, or with tags, fused parts or gaps limits assumed): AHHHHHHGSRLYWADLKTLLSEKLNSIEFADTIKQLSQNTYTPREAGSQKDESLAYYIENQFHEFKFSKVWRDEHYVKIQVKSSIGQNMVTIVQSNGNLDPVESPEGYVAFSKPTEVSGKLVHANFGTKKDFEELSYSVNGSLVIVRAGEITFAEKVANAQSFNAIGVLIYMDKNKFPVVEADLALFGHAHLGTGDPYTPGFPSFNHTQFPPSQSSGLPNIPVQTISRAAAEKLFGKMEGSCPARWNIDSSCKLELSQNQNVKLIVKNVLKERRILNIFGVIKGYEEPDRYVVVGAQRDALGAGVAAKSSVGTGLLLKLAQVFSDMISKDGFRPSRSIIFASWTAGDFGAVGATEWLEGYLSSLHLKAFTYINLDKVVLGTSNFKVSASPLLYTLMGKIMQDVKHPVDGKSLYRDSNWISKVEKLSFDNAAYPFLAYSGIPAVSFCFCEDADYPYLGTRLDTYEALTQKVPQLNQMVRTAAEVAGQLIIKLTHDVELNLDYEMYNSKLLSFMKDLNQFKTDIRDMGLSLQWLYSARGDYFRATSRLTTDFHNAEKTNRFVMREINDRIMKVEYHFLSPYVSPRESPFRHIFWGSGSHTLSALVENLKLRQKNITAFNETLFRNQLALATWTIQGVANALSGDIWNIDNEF
Description: phage ELISA on coated mTfR1 (1 µg/ml).
Description: Selected phage samples were diluted 1:10 in block buffer casein ELISA blocker (ThermoFischer Scientific), 20% v/v PEG8000 in 2.5 M NaCl before the ELISA. The targets (hTfR1, cTfR1, mTfR1) were coated at 1 μg/ml in PBS pH 7.4 overnight at 4° C. in 96-well Greiner plates (non-treated), 100 μl. The coating buffer was discarded and replaced by 100 μl block solution. The plate was covered and incubated at RT for 2 h, 900 rpm. Anti-human TfR1 antibody BA3 (MEM189, Sigma, 1 mg/ml) and anti-mTfR1 (81D3, Novus biologicals, 1 mg/ml) were diluted in block buffer to 100 nM starting concentration and diluted 1:2 in series by transferring 100 μl to 100 μl block buffer. Plates were incubated for 1 h at RT, 900 rpm, Wells were washed 3×300 μl in PBST (PBS with 0.1% Tween® 20) using the 50TS microplate washer (Biotek). Anti-M13 antibody (Anti-PVIII GE Healthcare) diluted 1:4000 in block buffer, 100 μl was added to target-coated wells followed by incubation for 1 h at RT, 900 rpm. Washing with PBST was performed. The secondary anti-mouse antibody (Sigma) 1:4000 in block buffer, incubated 1 h at RT, 900 rpm. Washes in PBST was followed by development with TMB substrate. The reaction was stopped with addition of 2 M H₂SO₄ to each well, readings for absorbance at 450 nm was measured using a SpectraMax 3000 (Molecular Devices). […]

Assay [8] addresses T1, His-tagged ectodomain of human …. The assay is described as follows: SPR (Biacore T200); hTfR1 amine-coupled (~1000 RU), VHH at 50 nM; (-) = binding affinity severely decreased. How it is done: as §2, §3

In general, Kd refers to the concentration at which binding is half-saturated. High values mean a looser complex, low ones a tighter complex. As a reminder, the koff is the rate constant with which the complex falls apart. Low readings indicate slow dissociation, high ones fast dissociation. By kon is commonly meant the rate constant with which the complex forms.

T1 sequence (P02786 other isoform, or with tags, fused parts or gaps limits assumed): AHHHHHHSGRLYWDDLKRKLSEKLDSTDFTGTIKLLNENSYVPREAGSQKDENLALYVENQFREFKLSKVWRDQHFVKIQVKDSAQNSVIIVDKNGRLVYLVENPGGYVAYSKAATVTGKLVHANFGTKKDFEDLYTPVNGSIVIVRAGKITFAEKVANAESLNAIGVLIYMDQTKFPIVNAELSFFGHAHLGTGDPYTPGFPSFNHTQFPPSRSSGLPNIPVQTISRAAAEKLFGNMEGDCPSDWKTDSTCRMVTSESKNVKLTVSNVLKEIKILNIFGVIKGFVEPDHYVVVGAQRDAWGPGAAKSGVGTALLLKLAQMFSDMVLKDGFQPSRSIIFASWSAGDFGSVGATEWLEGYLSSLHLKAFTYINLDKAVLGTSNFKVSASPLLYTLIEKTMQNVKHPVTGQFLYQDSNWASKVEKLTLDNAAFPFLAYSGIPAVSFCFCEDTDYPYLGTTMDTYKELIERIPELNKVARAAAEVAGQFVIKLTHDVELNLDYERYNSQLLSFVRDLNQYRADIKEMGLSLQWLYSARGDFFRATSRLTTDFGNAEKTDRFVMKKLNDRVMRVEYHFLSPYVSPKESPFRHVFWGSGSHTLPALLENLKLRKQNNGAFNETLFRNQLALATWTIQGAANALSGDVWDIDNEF

B1: KB_A01-scFv (scFv of 3D6 at the C-terminus of KB_A01) (bispecific antibody)
chain: QVQLQESGGGSVQAGGSLSLSCAASGSIFGSKRMGWFRQAPGEQRDVVATITYRGTTEYADSVKGRFTISRDNAKNTVYLQMNNLKPEDTAVYYCWMFTTDNYWGQGTQVTVSSGGGGSGGGGSGGGGSEVKLVESGGGLVKPGASLKLSCAASGFTFSNYGMSWVRQNSDKRLEWVASIRSGGGRTYYSDNVKGRFTISRENAKNTLYLQMSSLKSEDTALYYCVRYDHYSGSSDYWGQGTTVTVSGGGGSGGGGSGGGGSYVVMTQTPLTLSVTIGQPASISCKSSQSLLDSDGKTYLNWLLQRPGQSPKRLIYLVSKLDSGVPDRFTGSGSGTDFTLKISRIEAEDLGLYYCWQGTHFPRTFGGGTKLEIKGSENLYFQSHHHHHH
notes: Monovalent for TfR1; also called VHH-scFv
For B1, in assay [1], the Kd was determined as 3.44 nM, the off-rate constant (koff) amounted to 0.0075 s⁻¹ and the kon came to 2.18e+06 M⁻¹ s⁻¹.

B2: ProA positive control 1 with GGHHHHHH tag (VHH)
VHH: QVQLQESGGGLVQPGGSLRLSCAASGFTFSSYAMSWVRQAPGKGLEWVSAISGSGGSTYYADSVKGRFTISRDNSKNTLYLQMNSLRAEDTAVYYCGTDMEVWGKGTTVTVSSGGHHHHHH
As to B2, the binding result in assay [2] is “no binding (tested: 100 nM)”.

B3: KB_A19 (humanized variant of KB_A01) (VHH)
VHH: EVQLVESGGGLVQPGGSLRLSCAASGSIFGSKRMGWVRQAPGKGLEWVSAITYRGTTYYADSVKGRFTISRDNSKNTLYLQMNSLRAEDTAVYYCARFTTDNYWGQGTLVTVSS
notes: Free VHH from CHO cells without tag; also run as His6-tagged E. coli form
As for B3, in assay [3], the binding result was “no binding (tested: 50 nM)”.

B4: KB_A12 (KB_A01: S19R, N84S) with GGHHHHHH tag (VHH)
VHH: QVQLQESGGGSVQAGGSLRLSCAASGSIFGSKRMGWFRQAPGEQRDVVATITYRGTTEYADSVKGRFTISRDNAKNTVYLQMNSLKPEDTAVYYCWMFTTDNYWGQGTQVTVSSGGHHHHHH
Take B4: the binding result in assay [4] is listed as “binds”.

B5: KB_A15 (KB_A01: S19R, V78I, N84S), His6-tagged (VHH)
VHH: QVQLQESGGGSVQAGGSLRLSCAASGSIFGSKRMGWFRQAPGEQRDVVATITYRGTTEYADSVKGRFTISRDNAKNTIYLQMNSLKPEDTAVYYCWMFTTDNYWGQGTQVTVSS
notes: also called KB3_A15
Take B5: the binding result in assay [5] was “binds”.

B6: KB_A18 (humanized variant of KB_A01) (VHH)
VHH: EVQLVESGGGLVQPGGSLRLSCAASGSIFGSKRMGWFRQAPGKQRDVVATITYRGTTEYADSVKGRFTISRDNAKNTIYLQMNSLRPEDTAVYYCWMFTTDNYWGQGTLVTVSS
notes: Free VHH from CHO cells without tag; also run as His6-tagged E. coli form; also called KB3_A18
Regarding B6, the binding result in assay [5] is given as “binds”.

B7: KB_A22 (KB_A18 plus R45L) (VHH)
VHH: EVQLVESGGGLVQPGGSLRLSCAASGSIFGSKRMGWFRQAPGKQLDVVATITYRGTTEYADSVKGRFTISRDNAKNTIYLQMNSLRPEDTAVYYCWMFTTDNYWGQGTLVTVSS
notes: Free VHH from CHO cells, no tag
Take B7: the binding result in assay [5] was “binds”.

B8: KB_A30 (KB_A18 plus W96A) (VHH)
VHH: EVQLVESGGGLVQPGGSLRLSCAASGSIFGSKRMGWFRQAPGKQRDVVATITYRGTTEYADSVKGRFTISRDNAKNTIYLQMNSLRPEDTAVYYCAMFTTDNYWGQGTLVTVSS
notes: as for B7
For the molecule B8, in assay [3], the binding result is “no binding (tested: 50 nM)”.

B9: KB_A27 (KB_A18 plus E58Y) (VHH)
VHH: EVQLVESGGGLVQPGGSLRLSCAASGSIFGSKRMGWFRQAPGKQRDVVATITYRGTTYYADSVKGRFTISRDNAKNTIYLQMNSLRPEDTAVYYCWMFTTDNYWGQGTLVTVSS
notes: as for B7
As for B9, the binding result in assay [6] is given as “binds”.

B10: KB_A17 (humanized variant of KB_A01) (VHH)
VHH: EVQLVESGGGLVQPGGSLRLSCAASGSIFGSKRMGWFRQAPGKQRDVVATITYRGTTEYADSVKGRFTISRDNAKNTVYLQMNSLRPEDTAVYYCWMFTTDNYWGQGTQVTVSS
notes: as for B3
For B10, the binding result in assay [5] is reported as “binds”.

B11: KB_A20 (KB_A18 plus F37V) (VHH)
VHH: EVQLVESGGGLVQPGGSLRLSCAASGSIFGSKRMGWVRQAPGKQRDVVATITYRGTTEYADSVKGRFTISRDNAKNTIYLQMNSLRPEDTAVYYCWMFTTDNYWGQGTLVTVSS
notes: Free VHH from CHO cells, no tag, purified on PrismA resin
Take B11: in assay [3], the binding result was “no binding (tested: 50 nM)”.

B12: KB_A31 (KB_A18 plus M97R) (VHH)
VHH: EVQLVESGGGLVQPGGSLRLSCAASGSIFGSKRMGWFRQAPGKQRDVVATITYRGTTEYADSVKGRFTISRDNAKNTIYLQMNSLRPEDTAVYYCWRFTTDNYWGQGTLVTVSS
notes: as for B7
On to B12, for which the binding result in assay [3] is recorded as “no binding (tested: 50 nM)”.

B13: KB_A21 (KB_A18 plus Q44G) (VHH)
VHH: EVQLVESGGGLVQPGGSLRLSCAASGSIFGSKRMGWFRQAPGKGRDVVATITYRGTTEYADSVKGRFTISRDNAKNTIYLQMNSLRPEDTAVYYCWMFTTDNYWGQGTLVTVSS
notes: as for B7
Turning to B13, the binding result in assay [5] is “binds”.

B14: KB_A28 (KB_A18 plus A74S) (VHH)
VHH: EVQLVESGGGLVQPGGSLRLSCAASGSIFGSKRMGWFRQAPGKQRDVVATITYRGTTEYADSVKGRFTISRDNSKNTIYLQMNSLRPEDTAVYYCWMFTTDNYWGQGTLVTVSS
notes: as for B7
As for B14, the binding result in assay [5] is given as “binds”.

B15: KB_A23 (KB_A18 plus D46E) (VHH)
VHH: EVQLVESGGGLVQPGGSLRLSCAASGSIFGSKRMGWFRQAPGKQREVVATITYRGTTEYADSVKGRFTISRDNAKNTIYLQMNSLRPEDTAVYYCWMFTTDNYWGQGTLVTVSS
notes: as for B7
Turning to B15, the binding result in assay [5] is reported as “binds”.

B16: KB_A26 (KB_A18 plus T50A) (VHH)
VHH: EVQLVESGGGLVQPGGSLRLSCAASGSIFGSKRMGWFRQAPGKQRDVVAAITYRGTTEYADSVKGRFTISRDNAKNTIYLQMNSLRPEDTAVYYCWMFTTDNYWGQGTLVTVSS
notes: as for B7
For the molecule B16, in assay [3], the binding result is “no binding (tested: 50 nM)”.

B17: KB_A01 clone displayed on phage (VHH)
VHH: QVQLQESGGGSVQAGGSLSLSCAASGSIFGSKRMGWFRQAPGEQRDVVATITYRGTTEYADSVKGRFTISRDNAKNTVYLQMNNLKPEDTAVYYCWMFTTDNYWGQGTQVTVSS
For the molecule B17, the binding result in assay [7] was “no binding”.

B18: KB_A16 (humanized variant of KB_A01) (VHH)
VHH: EVQLVESGGGSVQPGGSLRLSCAASGSIFGSKRMGWFRQAPGKQRDVVATITYRGTTEYADSVKGRFTISRDNAKNTVYLQMNSLRPEDTAVYYCWMFTTDNYWGQGTQVTVSS
notes: Free VHH from CHO cells without tag
As to B18, the binding result in assay [5] is “binds”.

B19: KB_A25 (KB_A18 plus A49S) (VHH)
VHH: EVQLVESGGGLVQPGGSLRLSCAASGSIFGSKRMGWFRQAPGKQRDVVSTITYRGTTEYADSVKGRFTISRDNAKNTIYLQMNSLRPEDTAVYYCWMFTTDNYWGQGTLVTVSS
notes: as for B7
With B19, in assay [3], the binding result is on record as “no binding (tested: 50 nM)”.

B20: KB_A24 (KB_A18 plus V47W) (VHH)
VHH: EVQLVESGGGLVQPGGSLRLSCAASGSIFGSKRMGWFRQAPGKQRDWVATITYRGTTEYADSVKGRFTISRDNAKNTIYLQMNSLRPEDTAVYYCWMFTTDNYWGQGTLVTVSS
notes: as for B7
In the case of B20, in assay [8], the binding result is listed as “binds”.

B21: scFv-KB_A01 (scFv of 3D6 at the N-terminus of KB_A01) (bispecific antibody)
chain: EVKLVESGGGLVKPGASLKLSCAASGFTFSNYGMSWVRQNSDKRLEWVASIRSGGGRTYYSDNVKGRFTISRENAKNTLYLQMSSLKSEDTALYYCVRYDHYSGSSDYWGQGTTVTVSGGGGSGGGGSGGGGSYVVMTQTPLTLSVTIGQPASISCKSSQSLLDSDGKTYLNWLLQRPGQSPKRLIYLVSKLDSGVPDRFTGSGSGTDFTLKISRIEAEDLGLYYCWQGTHFPRTFGGGTKLEIKGGGGSGGGGSGGGGSQVQLQESGGGSVQAGGSLSLSCAASGSIFGSKRMGWFRQAPGEQRDVVATITYRGTTEYADSVKGRFTISRDNAKNTVYLQMNNLKPEDTAVYYCWMFTTDNYWGQGTQVTVSSGSENLYFQSHHHHHH
notes: Monovalent for TfR1; also called scFv-VHH
Take B21: in assay [1], the dissociation constant (Kd) was 3.16 nM, the koff was found to be 0.00539 s⁻¹ and the kon is 1.7e+06 M⁻¹ s⁻¹.

The values are drawn from patent US20260184804A1 (KEY2BRAIN, published 2026).
